Data from PMC9826845, “Characterization of the Escherichia coli XPD/Rad3 iron-sulfur helicase YoaA in complex with the DNA polymerase III clamp loader subunit chi (χ)”.

Target: YoaA (6xHis);chi (DNA polymerase III clamp loader subunit) (Escherichia coli;Escherichia coli, UniProt P76257;P28905 1-636;1-147, |)
Experiment: fluorescein quenching titration; 0.5 mM ATPgS; rough estimate, no saturation; assay buffer B (composition not in the material) with 0.5 mM ATPgS, 50 nM DNA, YoaA-chi 0.1 nM-2 uM (Kd titration) or 1 uM; temperature and pH not given
Details: protein: recombinant;recombinant, 6xHis (His-YoaA);, copies: 1;1, label: fluorescein, 20 bp, other end blunt

Sequence of YoaA (6xHis);chi (DNA polymerase III clamp loader subunit) (P76257 whole entry, chain 1 of 2): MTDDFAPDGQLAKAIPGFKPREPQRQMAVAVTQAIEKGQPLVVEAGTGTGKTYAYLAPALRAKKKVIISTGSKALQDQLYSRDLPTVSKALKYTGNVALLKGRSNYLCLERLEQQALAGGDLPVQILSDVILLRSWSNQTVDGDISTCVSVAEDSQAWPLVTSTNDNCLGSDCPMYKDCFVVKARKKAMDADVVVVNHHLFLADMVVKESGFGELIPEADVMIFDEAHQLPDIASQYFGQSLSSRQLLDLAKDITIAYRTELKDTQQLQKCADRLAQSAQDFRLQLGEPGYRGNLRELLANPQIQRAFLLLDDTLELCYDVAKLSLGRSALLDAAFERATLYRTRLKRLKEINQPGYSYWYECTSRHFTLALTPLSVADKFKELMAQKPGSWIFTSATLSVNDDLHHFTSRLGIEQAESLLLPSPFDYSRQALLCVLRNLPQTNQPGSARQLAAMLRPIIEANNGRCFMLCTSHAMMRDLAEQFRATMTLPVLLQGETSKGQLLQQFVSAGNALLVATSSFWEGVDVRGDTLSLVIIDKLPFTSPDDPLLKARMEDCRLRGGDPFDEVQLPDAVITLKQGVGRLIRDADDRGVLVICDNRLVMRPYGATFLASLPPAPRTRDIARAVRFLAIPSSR
Sequence of YoaA (6xHis);chi (DNA polymerase III clamp loader subunit) (P28905 whole entry, chain 2 of 2): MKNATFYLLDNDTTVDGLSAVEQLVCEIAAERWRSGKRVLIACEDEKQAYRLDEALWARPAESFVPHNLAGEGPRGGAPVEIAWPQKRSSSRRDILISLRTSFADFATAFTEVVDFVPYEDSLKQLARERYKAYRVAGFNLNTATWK

Binder | Kd (fork: 35 nt 5' overhang on strand 1, 10 nt 3' overhang on strand 2) [nM] | Kd (35 nt 5' overhang on strand 1) [nM]
B3 forked duplex (S4 + S5) (dsDNA, fluorescein at T15 of strand 2 (printed F, written as T)) DNA 1: TTTTTTTTTTTTTTTTTTTTTTTTTTTTTTTTTTTATAAAAGGGACATTCTGGCC DNA 2: GGCCAGAATGTCCCTTTTATTACTGGTCGT | ~328 | 
B2 5' overhang duplex (S18 + S5) (dsDNA, fluorescein at T15 of strand 2 (printed F, written as T), 6 nt from junction) DNA 1: TTTTTTTTTTTTTTTTTTTTTTTTTTTTTTTTTTTATAAAAGGGACATTCTGGCC DNA 2: GGCCAGAATGTCCCTTTTAT |  | ~350
